B1: 纳米抗体N5 (VHH)
VHH: QVQLVESGGGPVQAGGSLRLSCAAAGSALSIYRMGWYRQAPGKQRELVAFITTGGSTDHIDSVKGRFTISRDNAKNTVYLQMNSLKPEDTAVYYCNSDPPWVLGADWGQGTQVTVSS
notes: also called R5
B2: 纳米抗体N3 (VHH)
VHH: QVQLVESGGGLVQAGGSLRLSCRASGSVFTMGWHRQAPGNGREFVASITRDGNANYKGSVKDRFTISRDNGKNTLYLQMNSLKPEDTAVYYCIDYNTSTWGQGTQVTVSS
notes: also called R3
B3: 纳米抗体N22 (VHH)
VHH: QVQLVESGGGLVQAGGSLRLSCRASGTVFNMGWHRQAPGQQREFVASISHDGRTNYAGSVKGRFTISRDNTKNTLYLQMNSLKPEDTAVYYCIDYHTSLWGQGTQVTVSS
notes: also called R22
B4: 纳米抗体N1 (VHH)
VHH: QVQLVESGGGLVQPGGSLRLSCTASGSGFSNNNMAWYRQAPGKAREWVAAVSSSGNTNYAASAKGRFTISRDNAKNTVYLQMSSLKPEDTAVYYCYAVAPEGGDSWGQGTQVTVSS
notes: also called R1
B5: 纳米抗体N10 (VHH)
VHH: B4 VHH with Q13E, P14A, T23A, S27I, G28I, N31I, A44P, A63V, V78L
notes: also called R10

Numbering of substitutions follows the chain as printed.

We go through five molecules from patent CN115124615A (SICHUAN YIAI TECH CO LTD, dated 2022).

For one assay, the target named is 新冠病毒刺突蛋白(S蛋白) (SARS-CoV-2, UniProt P0DTC2 14-1213). Kind of assay: cell-based or functional assay.
On to B1, for which the “假病毒中和 IC50” value was 0.023 µg/mL.

The next assay addresses T1, SARS-CoV2病毒表面SPIKE蛋白的RBD结构域 (SARS-CoV-2, UniProt P0DTC2 319-541).
T1 construct: domain: RBD结构域
Kind of assay: SPR (Biacore).
Turning to B2, binding was characterised by a dissociation constant (Kd) of 1400 pM.

For the molecule B3, the Kd was 190 pM.

The molecule B4 registered a Kd of 560 pM.

For the molecule B5, binding was put at a Kd of 590 pM.

The molecule B1 displayed a Kd of 5300 pM.
